# Measurements as given in patent publication US20250066509A1 (SHANGHAI JMT BIO TECHNOLOGY, published 2025).
# Read-outs that look alike come from different tables or passages of the source.
# T1: human αKlotho extracellular segment protein (human, UniProt Q9UEF7 34-981)
# T1 construct: extracellular domain
# T1 sequence (looked up): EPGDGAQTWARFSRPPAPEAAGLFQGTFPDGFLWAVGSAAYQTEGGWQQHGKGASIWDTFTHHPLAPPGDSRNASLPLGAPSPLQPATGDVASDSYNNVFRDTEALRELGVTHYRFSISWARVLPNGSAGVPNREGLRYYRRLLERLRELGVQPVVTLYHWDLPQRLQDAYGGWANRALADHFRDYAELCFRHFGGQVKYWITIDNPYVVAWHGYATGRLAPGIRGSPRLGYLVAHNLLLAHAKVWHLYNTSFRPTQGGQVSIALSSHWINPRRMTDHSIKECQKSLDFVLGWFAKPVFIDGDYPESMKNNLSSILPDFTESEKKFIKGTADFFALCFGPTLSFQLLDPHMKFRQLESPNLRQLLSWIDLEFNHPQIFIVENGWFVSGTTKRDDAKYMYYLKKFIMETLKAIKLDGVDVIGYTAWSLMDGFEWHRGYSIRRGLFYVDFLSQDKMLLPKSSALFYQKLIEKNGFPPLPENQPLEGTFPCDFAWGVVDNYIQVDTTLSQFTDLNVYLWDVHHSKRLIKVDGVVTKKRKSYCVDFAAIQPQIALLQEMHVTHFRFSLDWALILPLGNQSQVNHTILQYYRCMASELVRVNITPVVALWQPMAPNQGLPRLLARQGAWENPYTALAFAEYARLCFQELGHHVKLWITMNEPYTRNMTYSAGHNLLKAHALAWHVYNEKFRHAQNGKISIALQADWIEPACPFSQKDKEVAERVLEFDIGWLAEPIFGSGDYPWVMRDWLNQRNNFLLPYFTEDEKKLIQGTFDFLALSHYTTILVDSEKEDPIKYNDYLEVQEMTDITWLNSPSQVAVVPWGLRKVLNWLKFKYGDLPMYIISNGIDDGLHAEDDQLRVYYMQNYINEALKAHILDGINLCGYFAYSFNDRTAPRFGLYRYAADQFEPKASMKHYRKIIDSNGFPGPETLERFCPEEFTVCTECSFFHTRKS
# T2: human βKlotho extracellular segment protein (human, UniProt Q86Z14 53-996)
# T2 construct: Captured by nickel plate or anti-His antibody, so His-tagged; also called human βKlotho extracellular protein
# T2 sequence: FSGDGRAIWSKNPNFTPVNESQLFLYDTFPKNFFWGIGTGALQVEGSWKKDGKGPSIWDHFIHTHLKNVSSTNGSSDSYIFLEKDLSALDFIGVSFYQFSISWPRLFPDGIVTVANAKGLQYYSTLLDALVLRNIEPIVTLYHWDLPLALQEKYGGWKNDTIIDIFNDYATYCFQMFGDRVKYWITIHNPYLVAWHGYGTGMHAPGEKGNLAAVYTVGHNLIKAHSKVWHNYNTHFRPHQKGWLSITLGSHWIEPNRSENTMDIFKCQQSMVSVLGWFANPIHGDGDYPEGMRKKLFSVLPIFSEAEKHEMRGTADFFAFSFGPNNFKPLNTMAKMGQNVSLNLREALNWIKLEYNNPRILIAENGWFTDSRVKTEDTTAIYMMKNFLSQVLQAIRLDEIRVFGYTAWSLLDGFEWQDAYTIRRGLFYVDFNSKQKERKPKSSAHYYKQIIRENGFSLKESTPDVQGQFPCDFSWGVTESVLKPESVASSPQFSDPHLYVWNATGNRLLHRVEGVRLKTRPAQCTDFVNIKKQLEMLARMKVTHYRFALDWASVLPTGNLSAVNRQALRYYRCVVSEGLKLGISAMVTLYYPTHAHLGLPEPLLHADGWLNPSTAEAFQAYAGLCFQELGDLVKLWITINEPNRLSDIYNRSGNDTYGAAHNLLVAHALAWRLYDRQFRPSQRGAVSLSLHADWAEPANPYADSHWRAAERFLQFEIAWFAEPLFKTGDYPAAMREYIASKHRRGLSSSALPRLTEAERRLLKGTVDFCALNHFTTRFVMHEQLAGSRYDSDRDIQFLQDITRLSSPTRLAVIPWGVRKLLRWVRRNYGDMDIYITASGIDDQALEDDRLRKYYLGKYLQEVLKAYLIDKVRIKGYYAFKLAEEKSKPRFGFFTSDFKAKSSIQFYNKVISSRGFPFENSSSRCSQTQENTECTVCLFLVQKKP
# Assays:
# [1] = target: T1, human αKlotho extracellular segment …; assay: ELISA; extracellular segment protein on nickel-coated plate, antibody titrated, anti-human IgG Fab-HRP
# Procedure: In this Example, the binding of some antibodies in Example 1 to human βKlotho, human αKlotho, and mouse βKlotho was detected using an ELISA assay as described below. A solution of human βKlotho (R&D systems), human αKlotho (R&D systems), or mouse βKlotho (R&D systems) extracellular segment protein at a specified concentration was added to a nickel-coated 96-well plate (Pierce) and the plate was incubated overnight at room temperature. The next day, the plate was blocked with PBS/1% BSA, and then antibodies at various concentrations were added to the wells. After incubating the plate for 1.5 hours at room temperature, a HRP-labeled anti-human IgG Fab secondary antibody was added to the wells and the plate was incubated for 30 minutes at room temperature. After the substrate was added and reacted at room temperature for 15 minutes, the reaction-stopping solution was added. OD₄₅₀ values were read. Exemplary data of antibodies' binding to human βKlotho, human αKlotho, and mouse βKlotho in the ELISA assay are as follows.
# [2] = target: T3, cynomolgus monkey FGFR1c/βKlotho receptor (cynomolgus monkey, UniProt A0A2K5WB58 1-1044); assay: cell-based or functional assay
# T3 sequence (A0A2K5WB58 entry or part of it): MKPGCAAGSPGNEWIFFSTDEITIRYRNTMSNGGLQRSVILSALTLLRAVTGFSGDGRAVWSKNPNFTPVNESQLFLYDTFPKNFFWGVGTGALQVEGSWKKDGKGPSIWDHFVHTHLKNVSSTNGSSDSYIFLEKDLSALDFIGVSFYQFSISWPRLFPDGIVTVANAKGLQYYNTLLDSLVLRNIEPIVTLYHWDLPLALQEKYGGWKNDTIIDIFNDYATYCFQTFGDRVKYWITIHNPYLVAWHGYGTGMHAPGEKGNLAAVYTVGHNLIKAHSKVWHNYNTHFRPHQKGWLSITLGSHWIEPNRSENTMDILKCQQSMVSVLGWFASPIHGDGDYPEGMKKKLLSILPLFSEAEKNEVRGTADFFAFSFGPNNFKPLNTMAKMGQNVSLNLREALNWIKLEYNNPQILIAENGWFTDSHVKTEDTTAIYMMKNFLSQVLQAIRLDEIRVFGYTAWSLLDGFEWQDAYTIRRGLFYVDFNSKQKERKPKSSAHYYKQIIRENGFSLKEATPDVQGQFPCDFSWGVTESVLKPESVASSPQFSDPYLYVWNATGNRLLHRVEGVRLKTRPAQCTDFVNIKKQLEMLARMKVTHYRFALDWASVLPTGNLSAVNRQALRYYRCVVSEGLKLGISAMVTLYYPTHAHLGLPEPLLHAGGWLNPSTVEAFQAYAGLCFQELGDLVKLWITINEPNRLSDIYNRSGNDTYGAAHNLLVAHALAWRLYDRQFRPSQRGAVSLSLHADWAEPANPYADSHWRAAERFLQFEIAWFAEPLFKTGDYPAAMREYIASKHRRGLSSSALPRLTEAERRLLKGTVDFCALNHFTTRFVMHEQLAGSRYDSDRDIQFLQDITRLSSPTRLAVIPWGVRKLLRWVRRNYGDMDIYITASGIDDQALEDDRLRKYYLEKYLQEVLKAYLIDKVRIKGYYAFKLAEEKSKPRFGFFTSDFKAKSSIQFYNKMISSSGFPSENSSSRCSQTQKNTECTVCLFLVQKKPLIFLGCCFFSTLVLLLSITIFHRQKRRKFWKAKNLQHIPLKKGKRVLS
# [3] = target: T3, cynomolgus monkey FGFR1c/βKlotho …; assay: cell-based or functional assay; remark: listed apart in the source
# [4] = target: T2, human βKlotho extracellular segment …; assay: Gator BLI; antibody captured on Protein A probe, human βKlotho ECD 400 nM-50 nM in solution
# Procedure: The antibodies described above were tested for affinity using Gator (Gator bio). Briefly, an antibody was first captured using a probe coated with Protein A (Gator bio). After the baseline was monitored for 60 seconds, the antibody-to-the antigen binding was determined with the human βKlotho extracellular segment protein described above at varying concentrations (400 nM-50 nM). Then, the dissociation was detected in a K buffer (Gator bio). Meanwhile, the function of an antibody to activate the human or cynomolgus monkey FGFR1c/βKlotho receptor was detected using the reporter-based assay described in Example 2.
# [5] = target: T3, cynomolgus monkey FGFR1c/βKlotho …; assay: cell-based or functional assay; remark: listed apart in the source
# [6] = target: human FGFR4/βKlotho receptor (human, UniProt P22455 22-802); assay: cell-based or functional assay
# human FGFR4/βKlotho receptor, sequence (P22455 22-802, chain 1 of 2): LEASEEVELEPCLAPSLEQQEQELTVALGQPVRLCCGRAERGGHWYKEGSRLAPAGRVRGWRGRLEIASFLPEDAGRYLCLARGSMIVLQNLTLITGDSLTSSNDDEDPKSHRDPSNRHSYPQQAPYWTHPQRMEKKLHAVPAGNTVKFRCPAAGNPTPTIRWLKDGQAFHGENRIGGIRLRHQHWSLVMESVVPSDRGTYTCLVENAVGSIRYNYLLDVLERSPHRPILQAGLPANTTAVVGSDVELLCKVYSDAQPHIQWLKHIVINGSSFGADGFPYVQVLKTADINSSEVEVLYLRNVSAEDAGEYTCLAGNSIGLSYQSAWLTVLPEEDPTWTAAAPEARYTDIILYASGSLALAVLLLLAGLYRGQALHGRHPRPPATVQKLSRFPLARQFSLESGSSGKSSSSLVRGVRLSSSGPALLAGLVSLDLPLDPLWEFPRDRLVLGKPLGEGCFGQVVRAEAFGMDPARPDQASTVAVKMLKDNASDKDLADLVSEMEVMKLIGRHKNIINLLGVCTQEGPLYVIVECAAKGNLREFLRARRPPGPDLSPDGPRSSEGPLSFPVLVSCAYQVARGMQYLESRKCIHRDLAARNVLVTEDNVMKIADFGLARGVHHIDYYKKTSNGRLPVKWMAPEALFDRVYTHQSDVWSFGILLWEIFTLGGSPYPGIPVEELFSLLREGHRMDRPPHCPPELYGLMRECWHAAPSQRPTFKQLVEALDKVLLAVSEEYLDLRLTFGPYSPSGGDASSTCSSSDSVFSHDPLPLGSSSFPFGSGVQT
# human FGFR4/βKlotho receptor, sequence (chain, as listed by the source, chain 2 of 2): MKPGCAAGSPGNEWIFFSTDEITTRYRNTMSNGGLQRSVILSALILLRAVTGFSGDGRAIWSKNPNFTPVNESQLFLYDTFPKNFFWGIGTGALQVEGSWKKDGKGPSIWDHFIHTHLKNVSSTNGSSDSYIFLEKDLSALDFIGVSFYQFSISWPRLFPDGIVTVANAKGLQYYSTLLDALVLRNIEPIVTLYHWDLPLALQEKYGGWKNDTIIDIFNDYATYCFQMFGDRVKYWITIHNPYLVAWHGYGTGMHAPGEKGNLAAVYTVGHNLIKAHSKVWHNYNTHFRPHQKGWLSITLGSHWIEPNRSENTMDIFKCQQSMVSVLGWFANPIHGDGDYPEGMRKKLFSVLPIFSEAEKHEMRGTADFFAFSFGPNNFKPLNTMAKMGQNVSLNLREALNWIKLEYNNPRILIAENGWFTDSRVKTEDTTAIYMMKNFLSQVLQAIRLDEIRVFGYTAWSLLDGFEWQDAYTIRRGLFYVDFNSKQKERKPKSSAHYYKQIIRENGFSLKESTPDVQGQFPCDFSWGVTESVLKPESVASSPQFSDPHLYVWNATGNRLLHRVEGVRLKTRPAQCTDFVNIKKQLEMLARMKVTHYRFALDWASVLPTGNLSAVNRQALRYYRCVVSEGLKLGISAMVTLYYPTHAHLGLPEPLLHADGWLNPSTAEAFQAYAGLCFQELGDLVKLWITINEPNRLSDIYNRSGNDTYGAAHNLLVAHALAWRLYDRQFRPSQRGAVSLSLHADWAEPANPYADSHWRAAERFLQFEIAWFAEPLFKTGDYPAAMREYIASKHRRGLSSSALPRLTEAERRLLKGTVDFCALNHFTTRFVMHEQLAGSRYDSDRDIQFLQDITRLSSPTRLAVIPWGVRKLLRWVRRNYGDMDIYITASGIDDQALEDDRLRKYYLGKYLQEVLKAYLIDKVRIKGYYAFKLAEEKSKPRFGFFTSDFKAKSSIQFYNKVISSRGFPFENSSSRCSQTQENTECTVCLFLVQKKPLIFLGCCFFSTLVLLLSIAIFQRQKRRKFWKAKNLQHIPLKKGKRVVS
Binder,"EC50 for antibody-induced cell activation, as determined by the reporter-based assay [3] [nM]",further results
"CB-8 (antibody, V domains shown) VH: EVQLVQSGAEVKKPGASVKVSCKASGYTFTSYGISWVRQAPGQGLEWMGWISAYNGNTNYAQKLQGRVTMTTDTSTSTAYMELRSLRSDDTAVYYCATLYGSGSLYYWGQGTLVTVSS VL: DIVMTQSPSSLSAPVGDRVTITCQASQDIRNYINWFQQKPGKAPKLLIYAASSLQSGVPSRFSGSGSGTDFTLTISSLQPEDFATYYCQQSYSTPQWTFGQGTKVEIK",2.86,"EC50 [1]: > 100 nM; EC50, luciferase reporter-based assay (receptor activation) [2]: 4.89 nM"
"CB-8-13 (antibody, human IgG1, V domains shown) VH: EVQLVQSGAEVKKPGASVKVSCKASGYRFTSYGISWVRQAPGQGLEWMGWISAYNGRTNYAQKLQGRVTMTTDTSTSTAYMELRSLRSDDTAVYYCATLYGSGSLYYWGQGTLVTVSS VL: DIVMTQSPSSLSAPVGDRVTITCQASQDIRNYINWFQQKPGKAPKLLIYAASRLQSGVPSRFSGSGSGTDFTLTISSLQPEDFATYYCQQSYSTPQWTFGQGTKVEIK",0.88,
"CB-8-14 (antibody, human IgG1, V domains shown) VH: EVQLVQSGAEVKKPGASVKVSCKASGYTFRSYGISWVRQAPGQGLEWMGWISAYTGNTNYAQKLQGRVTMTTDTSTSTAYMELRSLRSDDTAVYYCATLYGSGSLYYWGQGTLVTVSS VL: DIVMTQSPSSLSAPVGDRVTITCQASQDIRNYINWFQQKPGKAPKLLIYAASSRQSGVPSRFSGSGSGTDFTLTISSLQPEDFATYYCQQSYSTPQWTFGQGTKVEIK",1.08,
"CB-8-23 (antibody, human IgG1, V domains shown) VH: EVQLVQSGAEVKKPGASVKVSCKASGYTFTSGGISWVRQAPGQGLEWMGWISAYNGRTNYAQKLQGRVTMTTDTSTSTAYMELRSLRSDDTAVYYCATLYGSGSLYYWGQGTLVTVSS VL: DIVMTQSPSSLSAPVGDRVTITCQASQDIRNYINWFQQKPGKAPKLLIYAASFLQSGVPSRFSGSGSGTDFTLTISSLQPEDFATYYCQQSYSTPQWTFGQGTKVEIK",0.55,Kd [4]: 7.08 nM; koff [4]: 0.000173 s⁻¹; kon [4]: 24500 M⁻¹ s⁻¹
"CB-8-24 (antibody, V domains shown) VH: EVQLVQSGAEVKKPGASVKVSCKASGYTFTSYGISWVRQAPGQGLEWMGWISAYNGNTNYAQKLQGRVTMTTDTSTSTAYMELRSLRSDDTAVYYCATLLPSGSLYYWGQGTLVTVSS VL: DIVMTQSPSSLSAPVGDRVTITCQASQDIRNYINWFQQKPGKAPKLLIYAASSLQSGVPSRFSGSGSGTDFTLTISSLQPEDFATYYCQQSYSTPQWTFGQGTKVEIK",0.15,
"CB-8-26 (antibody, human IgG1, V domains shown) VH: EVQLVQSGAEVKKPGASVKVSCKASGYTFKSYGISWVRQAPGQGLEWMGWISAYNGRTNYAQKLQGRVTMTTDTSTSTAYMELRSLRSDDTAVYYCATLYGSGSLYYWGQGTLVTVSS VL: DIVMTQSPSSLSAPVGDRVTITCQASQDIRNYINWFQQKPGKAPKLLIYAASGLQSGVPSRFSGSGSGTDFTLTISSLQPEDFATYYCQQSYSTPQWTFGQGTKVEIK",0.71,
"CB-8-37 (antibody, human IgG1, V domains shown) VH: EVQLVQSGAEVKKPGASVKVSCKASGYAFTSYGISWVRQAPGQGLEWMGWISAYSGNTNYAQKLQGRVTMTTDTSTSTAYMELRSLRSDDTAVYYCATLYGSGSLYYWGQGTLVTVSS VL: DIVMTQSPSSLSAPVGDRVTITCQASQDIRNYINWFQQKPGKAPKLLIYAASFLQSGVPSRFSGSGSGTDFTLTISSLQPEDFATYYCQQSYSTPQWTFGQGTKVEIK",0.54,
"CB-8-40 (antibody, human IgG1, V domains shown) VH: EVQLVQSGAEVKKPGASVKVSCKASGYTFTSYGISWVRQAPGQGLEWMGWISAYSGNTNYAQKLQGRVTMTTDTSTSTAYMELRSLRSDDTAVYYCATLYGSGSLYYWGQGTLVTVSS VL: DIVMTQSPSSLSAPVGDRVTITCQASQDIRNYINWFQQKPGKAPKLLIYAASYLQSGVPSRFSGSGSGTDFTLTISSLQPEDFATYYCQQSYSTPQWTFGQGTKVEIK",0.49,
"CB-8-41 (antibody, human IgG1, V domains shown) VH: EVQLVQSGAEVKKPGASVKVSCKASGYLFTSYGISWVRQAPGQGLEWMGWISAYTGNTNYAQKLQGRVTMTTDTSTSTAYMELRSLRSDDTAVYYCATLYGSGSLYYWGQGTLVTVSS VL: DIVMTQSPSSLSAPVGDRVTITCQASQDIRNYINWFQQKPGKAPKLLIYAASHLQSGVPSRFSGSGSGTDFTLTISSLQPEDFATYYCQQSYSTPQWTFGQGTKVEIK",1.57,
"CB-8-42 (antibody, human IgG1, kappa, V domains shown) VH: EVQLVQSGAEVKKPGASVKVSCKASGYTFTSYGISWVRQAPGQGLEWMGWISAYSGNTNYAQKLQGRVTMTTDTSTSTAYMELRSLRSDDTAVYYCATLLPSGSLYYWGQGTLVTVSS VL: DIVMTQSPSSLSAPVGDRVTITCQASQDIRNYINWFQQKPGKAPKLLIYAASYLQSGVPSRFSGSGSGTDFTLTISSLQPEDFATYYCQQSYSTPQWTFGQGTKVEIKR",,"EC50, luciferase reporter-based assay (receptor activation) [5]: 0.17 nM; EC50, luciferase reporter-based assay (receptor activation) [6]: > 100 nM"
